Consider four molecules from US20240182908, “DEOXYRIBONUCLEOSIDE OR DEOXYRIBONUCLEOTIDE HAVING NOVEL ARTIFICIAL BASE APPLICABLE TO SCREENING FOR DNA APTAMER, AND NUCLEIC ACID CONTAINING THE SAME” (TAGCYX BIOTECHNOLOGIES INC., published 2024).

Like-named read-outs stand apart in the source and are kept apart here.

The target in data set [1] is T1, sIL-6R (soluble interleukin-6 receptor) (UniProt P08887 P08887:20-355). Put plainly: EMSA; PBS + 0.005% NP-40, room temperature; shift band lost. As for the experimental part: (§1) The purified oligomer of the candidate sequence was added into the binding solution to adjust to 0.2 μM, and a folding operation (at 95° C. for 5 minutes→(−0.1° C./sec)→at 25° C.) was performed to form tertiary structures. Thereafter, sIL-6R was diluted with the binding solution to 0.2 μM and mixed with the folded DNA solution, and the resultant was incubated at room temperature for 30 minutes. The sample incubated was subjected to electrophoresis with 8% unmodified polyacrylamide gel to analyze on whether a band indicative of the DNA-protein complex could be detected. DNA was stained with SYBR Gold, and detected with blue light at 470 nm (two lanes in the left in FIG. 4).
Subsequently, to determine whether the novel artificial base dDsbn is involved in binding to sIL-6R, evaluation was performed with oligomers obtained by substituting dDsbn with dDs or dA (dDs-substituted form: T-00203, dA-substituted form: T-00204, see below for the sequences in Table 5). The oligomers were synthesized with a chemical synthesis method, and purified with an OPC (cartridge). For EMSA, a folding operation, reaction, and analysis with unmodified polyacrylamide were performed as described above (FIG. 4).
Background: In EMSA bound probe runs differently from free probe, usually more slowly.

Data set [2] deals with T2, VEGF165 (UniProt P15692-4 P15692-4:27-191). Put plainly: EMSA; PBS + 0.005% NP-40, 37 C; shift band lost. The following applies: chain copies: 2. As for the experimental part:
(§2) Analysis was performed by EMSA on whether the most concentrated candidate sequence binds to the target protein. First, an oligomer corresponding to the candidate sequence (T-00244, see below for the sequence in Table 8) was synthesized with a chemical synthesis method, and purified with an OPC (cartridge). The purified oligomer of the candidate sequence was added into the binding solution to adjust to 0.2 μM, and a folding operation (at 95° C., for 5 minutes→(−0.1° C./sec)→at 25° C.) was performed to form tertiary structures. Thereafter, VEGF165 was diluted with the binding solution to 0.2 μM and mixed with the folded DNA solution, and the resultant was incubated at 37° C. for 30 minutes. The sample incubated was subjected to electrophoresis with 8% unmodified polyacrylamide gel to analyze on whether a band indicative of the DNA-protein complex could be detected. DNA was stained with SYBR Gold, and detected with blue light at 470 nm.
Subsequently, to determine whether the novel artificial base dDscp is involved in binding to VEGF165, evaluation was performed with oligomers obtained by substituting dDscp with dDs or dA (dDs-substituted form: T-00245, dA-substituted form: T-00246, see below for the sequences in Table 8). The oligomers were synthesized with a chemical synthesis method, and purified with an OPC (cartridge). […]

Data set [3] has as its target T2, VEGF165. Put plainly: EMSA; PBS + 0.005% NP-40, 37 C; shift band lost. As to conditions: chain copies: 2. As for the experimental part:
as §1, with “sequence (T-00199, see below for the sequence in Table 4)” for “sequence”, “VEGF165” for “sIL-6R”, “37° C.” for “room temperature”, “10%” for “8%”, “nm.” for “nm (two lanes in the left in FIG. 4).”
Subsequently, to determine whether the novel artificial base dDsbn is involved in binding to VEGF165, evaluation was performed with oligomers obtained by substituting dDsbn with dDs or dA (dDs-substituted form: T-00200, dA-substituted form: T-00201, see below for the sequences in Table 4). The oligomers were synthesized with a chemical synthesis method, and purified with an OPC (cartridge). For EMSA, a folding operation and reaction were performed as described above, and analysis was performed with unmodified polyacrylamide (in FIG. 2, dDs: two lanes in the center, dA: two lanes in the right).
This is another data set of the same source.

In data set [4] the target is T1, sIL-6R (soluble interleukin-6 receptor). The experiment in a line: EMSA; PBS + 0.005% NP-40, room temperature; shift band lost. Here is the method: as §2, with “candidate sequence (T-00247, see below” for “candidate sequence (T-00244, see below”, “in Table 9) was synthesized” for “in Table 8) was synthesized”, “structures. Thereafter, sIL-6R was diluted” for “structures. Thereafter, VEGF165 was diluted”, “solution to 0.6 μM and” for “solution to 0.2 μM and”, “incubated at room temperature for 30” for “incubated at 37° C. for 30”
Subsequently, to determine whether the novel artificial base dDscp is involved in binding to sIL-6R, evaluation was performed with oligomers obtained by substituting dDscp with dDs or dA (dDs-substituted form: T-00248, dA-substituted form: T-00249, see below for the sequences in Table 9). The oligomers were synthesized with a chemical synthesis method, and purified with an OPC (cartridge). […]
This is another data set of the same source.

T1 sequence (P08887 20-355, one chain of several): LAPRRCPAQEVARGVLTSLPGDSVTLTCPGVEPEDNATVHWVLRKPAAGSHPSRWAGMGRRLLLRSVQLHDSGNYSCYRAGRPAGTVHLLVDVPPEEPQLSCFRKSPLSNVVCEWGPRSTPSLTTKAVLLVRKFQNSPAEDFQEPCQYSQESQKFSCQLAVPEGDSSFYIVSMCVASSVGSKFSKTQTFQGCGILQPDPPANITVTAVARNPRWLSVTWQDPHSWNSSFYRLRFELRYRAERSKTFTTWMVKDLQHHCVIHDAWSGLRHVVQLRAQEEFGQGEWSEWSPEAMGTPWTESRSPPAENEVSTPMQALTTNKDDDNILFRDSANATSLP
T2 sequence (P15692 other isoform, or with tags, fused parts or gaps): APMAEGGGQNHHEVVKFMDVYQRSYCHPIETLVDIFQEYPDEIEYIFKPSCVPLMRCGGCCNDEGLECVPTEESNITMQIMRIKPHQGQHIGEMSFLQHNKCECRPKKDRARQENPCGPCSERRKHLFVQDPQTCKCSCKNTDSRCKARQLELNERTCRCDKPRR

B1: T-00204 (ssDNA)
DNA: CTCCATTGACTCGGCTTAAACTCCCAGGAGGTGGTGGGGGTGGGATTAGGGTTGGGATTGGAGGGGTGTCGGTCATATTGGGGTGCTCCTTGGCT
Turning to B1, the binding result in data set [1] was “no binding”.

B2: T-00246 (ssDNA)
DNA: GCGTGTTGAGCTGTATTAGGGTGTCAGGTTTTGGTCAGGCGTTCAAACGTAGAGGAATGGACACTTCGGCGATACAATCCTGATCCATGAGACGG
Take B2: the binding result with VEGF165 [2] is “no binding”.

B3: T-00201 (ssDNA)
DNA: CTCCATTGACTCGGCTTAAACTCCCGTCAGTTATGAATAGGTACGCATGCGGAGTTCGCTACCCCGCCATGGTCATATTGGGGTGCTCCTTGGCT
B3: the binding result with VEGF165 [3] was “no binding”.

B4: T-00249 (ssDNA)
DNA: GCGTGTTGAGCTGTATTAGGGTGTCAGGAAGGATTCGGGGGTGGATTTAGGGGGGGATCGTTGTGGAGGCGATACAATCCTGATCCATGAGACGG
With B4, in data set [4], the binding result is on record as “no binding”.
